Reference: paper PMC9482650, “Quantitative fragmentomics allow affinity mapping of interactomes” (Nature Communications, 2022)
Changes are numbered by the printed parent chain.

B1: PRKD2, Q9BZL6 (peptide)
chain: QGLAERISVL

These binders were tested against T1, LIN7B, Q9HAP6 (assay: holdup assay). Conditions: plain residues with an end cap or a label only (N-terminal biotin on a linker: ado-ado).
T1 sequence (Q9HAP6 88-185, limits assumed, looked up): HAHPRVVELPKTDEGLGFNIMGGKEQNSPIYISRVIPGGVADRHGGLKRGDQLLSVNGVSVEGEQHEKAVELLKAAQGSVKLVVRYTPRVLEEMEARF
Parameters: key: below the threshold = too weak to quantify, mostly under pKd 3.1 to 4

Binder	pKd
B1	below the threshold

What follows are binders tested against DLG1_2, Q12959 (assay: holdup assay). Conditions: plain residues with an end cap or a label only (N-terminal biotin on a linker: ado-ado).
Parameters: key: below the threshold = too weak to quantify, mostly under pKd 3.1 to 4

Sequence of DLG1_2, Q12959 (Q12959 314-412): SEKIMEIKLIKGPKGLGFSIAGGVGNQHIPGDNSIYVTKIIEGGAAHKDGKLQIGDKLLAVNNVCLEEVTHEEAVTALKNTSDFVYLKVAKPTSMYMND

Binder	pKd
B1	3.67

The binders below were run against DLG1_3, Q12959 (assay: holdup assay). Conditions: plain residues with an end cap or a label only (N-terminal biotin on a linker: ado-ado).
Parameters: key: below the threshold = too weak to quantify, mostly under pKd 3.1 to 4

Sequence of DLG1_3, Q12959 (Q12959 457-571): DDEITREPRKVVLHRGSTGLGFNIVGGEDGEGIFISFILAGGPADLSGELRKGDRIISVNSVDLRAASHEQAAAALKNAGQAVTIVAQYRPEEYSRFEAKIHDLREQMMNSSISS

Binder	pKd
B1	below the threshold

The binders below were run against SCRIB_2, Q14160 (assay: holdup assay). Conditions: plain residues with an end cap or a label only (N-terminal biotin on a linker: ado-ado).
Parameters: key: below the threshold = too weak to quantify, mostly under pKd 3.1 to 4

Sequence of SCRIB_2, Q14160 (Q14160 857-960): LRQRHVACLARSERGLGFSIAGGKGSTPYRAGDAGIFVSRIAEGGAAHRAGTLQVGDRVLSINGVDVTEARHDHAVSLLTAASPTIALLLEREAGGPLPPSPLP

Binder	pKd
B1	below the threshold

The binders below were run against Inadl_3, Q8NI35 (assay: holdup assay). Conditions: plain residues with an end cap or a label only (N-terminal biotin on a linker: ado-ado).
Parameters: key: below the threshold = too weak to quantify, mostly under pKd 3.1 to 4

Sequence of Inadl_3, Q8NI35 (Q8NI35 359-469): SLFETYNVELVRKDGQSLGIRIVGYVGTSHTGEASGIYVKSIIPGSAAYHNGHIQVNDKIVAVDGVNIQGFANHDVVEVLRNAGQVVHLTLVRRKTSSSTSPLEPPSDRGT

Binder	pKd
B1	3.64

These binders were tested against LNX1_3, Q8TBB1 (assay: holdup assay). Conditions: plain residues with an end cap or a label only (N-terminal biotin on a linker: ado-ado).
Parameters: key: below the threshold = too weak to quantify, mostly under pKd 3.1 to 4

Sequence of LNX1_3, Q8TBB1 (Q8TBB1 500-596): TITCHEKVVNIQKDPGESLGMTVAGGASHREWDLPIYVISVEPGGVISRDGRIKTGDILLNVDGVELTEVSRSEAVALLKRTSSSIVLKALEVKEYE

Binder	pKd
B1	below the threshold

Each binder was assayed against DLG4_3, P78352 (assay: holdup assay). Conditions: plain residues with an end cap or a label only (N-terminal biotin on a linker: ado-ado).
Parameters: key: below the threshold = too weak to quantify, mostly under pKd 3.1 to 4

Sequence of DLG4_3, P78352 (P78352 306-403): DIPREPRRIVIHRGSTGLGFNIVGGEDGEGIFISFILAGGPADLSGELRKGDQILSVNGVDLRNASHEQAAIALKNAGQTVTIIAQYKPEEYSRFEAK

Binder	pKd
B1	below the threshold

These binders were tested against T2, PDZD2_2, O15018 (assay: holdup assay). Conditions: plain residues with an end cap or a label only (N-terminal biotin on a linker: ado-ado).
T2 sequence (O15018 329-429, limits assumed, looked up): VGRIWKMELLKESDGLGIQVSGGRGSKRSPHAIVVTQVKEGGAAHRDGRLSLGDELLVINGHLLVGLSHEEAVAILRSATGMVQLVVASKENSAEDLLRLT
Parameters: key: below the threshold = too weak to quantify, mostly under pKd 3.1 to 4

Binder	pKd
B1	4.32

These binders were tested against FRMPD2_1, Q68DX3 (assay: holdup assay). Conditions: plain residues with an end cap or a label only (N-terminal biotin on a linker: ado-ado).
Parameters: key: below the threshold = too weak to quantify, mostly under pKd 3.1 to 4

Sequence of FRMPD2_1, Q68DX3 (Q68DX3 770-861): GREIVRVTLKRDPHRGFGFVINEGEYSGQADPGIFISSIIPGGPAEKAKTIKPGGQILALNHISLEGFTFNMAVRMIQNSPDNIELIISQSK

Binder	pKd
B1	below the threshold

The binders below were run against T3, PDZRN3_1, Q9UPQ7 (assay: holdup assay). Conditions: plain residues with an end cap or a label only (N-terminal biotin on a linker: ado-ado).
T3 sequence (Q9UPQ7 244-349, limits assumed, looked up): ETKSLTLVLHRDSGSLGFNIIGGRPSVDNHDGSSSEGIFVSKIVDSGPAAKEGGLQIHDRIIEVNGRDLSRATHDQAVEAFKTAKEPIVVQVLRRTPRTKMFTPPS
Parameters: key: below the threshold = too weak to quantify, mostly under pKd 3.1 to 4

Binder	pKd
B1	3.84

What follows are binders tested against T4, ARHGAP21, Q5T5U3 (assay: holdup assay). Conditions: plain residues with an end cap or a label only (N-terminal biotin on a linker: ado-ado).
T4 sequence (Q5T5U3 45-169, limits assumed, looked up): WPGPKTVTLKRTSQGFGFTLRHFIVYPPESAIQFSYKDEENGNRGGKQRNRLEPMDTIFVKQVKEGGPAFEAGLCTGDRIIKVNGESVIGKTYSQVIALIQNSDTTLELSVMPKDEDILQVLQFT
Parameters: key: below the threshold = too weak to quantify, mostly under pKd 3.1 to 4

Binder	pKd
B1	3.93

These binders were tested against T5, LIN7C, Q9NUP9 (assay: holdup assay). Conditions: plain residues with an end cap or a label only (N-terminal biotin on a linker: ado-ado).
T5 sequence (Q9NUP9 88-185, limits assumed, looked up): T1 sequence (Q9HAP6 88-185, limits assumed, looked up) with A2S, D13E, V35I, V40I, Q65H, S79K, R89K, A96S
Parameters: key: below the threshold = too weak to quantify, mostly under pKd 3.1 to 4

Binder	pKd
B1	4.12

What follows are binders tested against LAP2, Q96RT1 (assay: holdup assay). Conditions: plain residues with an end cap or a label only (N-terminal biotin on a linker: ado-ado).
Parameters: key: below the threshold = too weak to quantify, mostly under pKd 3.1 to 4

Sequence of LAP2, Q96RT1 (Q96RT1 other isoform, or with tags, fused parts or gaps): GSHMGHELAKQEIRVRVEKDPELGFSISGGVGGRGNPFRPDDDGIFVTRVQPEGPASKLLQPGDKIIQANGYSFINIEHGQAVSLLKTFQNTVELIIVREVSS

Binder	pKd
B1	below the threshold

These binders were tested against MAGI2_4, Q86UL8 (assay: holdup assay). Conditions: plain residues with an end cap or a label only (N-terminal biotin on a linker: ado-ado).
Parameters: key: below the threshold = too weak to quantify, mostly under pKd 3.1 to 4

Sequence of MAGI2_4, Q86UL8 (Q86UL8 772-865): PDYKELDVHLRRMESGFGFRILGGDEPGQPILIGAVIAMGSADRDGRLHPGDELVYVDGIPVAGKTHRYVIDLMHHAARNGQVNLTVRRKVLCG

Binder	pKd
B1	below the threshold

These binders were tested against T6, SNTB1, Q13884 (assay: holdup assay). Conditions: plain residues with an end cap or a label only (N-terminal biotin on a linker: ado-ado).
T6 sequence (Q13884 107-205, limits assumed, looked up): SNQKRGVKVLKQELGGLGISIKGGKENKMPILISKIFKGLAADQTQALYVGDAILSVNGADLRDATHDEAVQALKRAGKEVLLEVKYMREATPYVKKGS
Parameters: key: below the threshold = too weak to quantify, mostly under pKd 3.1 to 4

Binder	pKd
B1	4.92

What follows are binders tested against IL16_4, Q14005 (assay: holdup assay). Conditions: plain residues with an end cap or a label only (N-terminal biotin on a linker: ado-ado).
Parameters: key: below the threshold = too weak to quantify, mostly under pKd 3.1 to 4

Sequence of IL16_4, Q14005 (Q14005 1229-1329): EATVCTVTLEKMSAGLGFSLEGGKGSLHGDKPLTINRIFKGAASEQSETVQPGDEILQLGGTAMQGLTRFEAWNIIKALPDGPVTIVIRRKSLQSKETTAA

Binder	pKd
B1	3.71

The binders below were run against T7, APBA2_2, Q99767 (assay: holdup assay). Conditions: plain residues with an end cap or a label only (N-terminal biotin on a linker: ado-ado).
T7 sequence (Q99767 654-744, limits assumed, looked up): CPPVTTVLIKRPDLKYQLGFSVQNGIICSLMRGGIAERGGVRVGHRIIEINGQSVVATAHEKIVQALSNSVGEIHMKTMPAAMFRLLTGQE
Parameters: key: below the threshold = too weak to quantify, mostly under pKd 3.1 to 4

Binder	pKd
B1	below the threshold

Each binder was assayed against Inadl_6, Q8NI35 (assay: holdup assay). Conditions: plain residues with an end cap or a label only (N-terminal biotin on a linker: ado-ado).
Parameters: key: below the threshold = too weak to quantify, mostly under pKd 3.1 to 4

Sequence of Inadl_6, Q8NI35 (Q8NI35 1058-1167): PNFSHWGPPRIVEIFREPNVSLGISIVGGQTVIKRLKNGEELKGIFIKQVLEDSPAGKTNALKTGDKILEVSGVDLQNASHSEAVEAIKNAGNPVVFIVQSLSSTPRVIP

Binder	pKd
B1	4.02

These binders were tested against TJP1_3, Q07157 (assay: holdup assay). Conditions: plain residues with an end cap or a label only (N-terminal biotin on a linker: ado-ado).
Parameters: key: below the threshold = too weak to quantify, mostly under pKd 3.1 to 4

Sequence of TJP1_3, Q07157 (Q07157 416-512): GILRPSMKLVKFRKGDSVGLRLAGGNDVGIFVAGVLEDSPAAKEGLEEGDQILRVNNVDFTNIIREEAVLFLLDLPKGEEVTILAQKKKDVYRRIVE

Binder	pKd
B1	below the threshold

The binders below were run against T8, LNX2_3, Q8N448 (assay: holdup assay). Conditions: plain residues with an end cap or a label only (N-terminal biotin on a linker: ado-ado).
T8 sequence (Q8N448 463-564, limits assumed, looked up): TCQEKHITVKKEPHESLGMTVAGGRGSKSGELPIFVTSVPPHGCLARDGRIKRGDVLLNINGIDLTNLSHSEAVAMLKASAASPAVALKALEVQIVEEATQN
Parameters: key: below the threshold = too weak to quantify, mostly under pKd 3.1 to 4

Binder	pKd
B1	below the threshold

What follows are binders tested against T9, HTRA4, P83105 (assay: holdup assay). Conditions: plain residues with an end cap or a label only (N-terminal biotin on a linker: ado-ado).
T9 sequence (P83105 378-476, limits assumed, looked up): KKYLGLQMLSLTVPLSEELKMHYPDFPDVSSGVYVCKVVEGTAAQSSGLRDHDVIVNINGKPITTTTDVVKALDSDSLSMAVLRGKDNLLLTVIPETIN
Parameters: key: below the threshold = too weak to quantify, mostly under pKd 3.1 to 4

Binder	pKd
B1	4.06

The binders below were run against T10, SNTG2, Q9NY99 (assay: holdup assay). Conditions: plain residues with an end cap or a label only (N-terminal biotin on a linker: ado-ado).
T10 sequence (Q9NY99 68-166, limits assumed, looked up): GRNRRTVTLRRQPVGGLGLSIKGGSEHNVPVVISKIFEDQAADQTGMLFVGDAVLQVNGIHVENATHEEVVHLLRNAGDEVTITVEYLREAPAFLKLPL
Parameters: key: below the threshold = too weak to quantify, mostly under pKd 3.1 to 4

Binder	pKd
B1	3.66

Each binder was assayed against T11, NHERF3_4, Q5T2W1 (assay: holdup assay). Conditions: plain residues with an end cap or a label only (N-terminal biotin on a linker: ado-ado).
T11 sequence (Q5T2W1 373-468, limits assumed, looked up): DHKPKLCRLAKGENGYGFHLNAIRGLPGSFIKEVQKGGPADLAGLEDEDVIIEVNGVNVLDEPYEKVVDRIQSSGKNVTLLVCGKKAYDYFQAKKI
Parameters: key: below the threshold = too weak to quantify, mostly under pKd 3.1 to 4

Binder	pKd
B1	3.73

What follows are binders tested against T12, GRIP1_4, Q9Y3R0 (assay: holdup assay). Conditions: plain residues with an end cap or a label only (N-terminal biotin on a linker: ado-ado).
T12 sequence (Q9Y3R0 467-571, limits assumed, looked up): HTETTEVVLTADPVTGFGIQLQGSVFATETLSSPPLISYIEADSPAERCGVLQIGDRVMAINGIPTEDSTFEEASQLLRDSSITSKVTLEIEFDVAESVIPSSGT
Parameters: key: below the threshold = too weak to quantify, mostly under pKd 3.1 to 4

Binder	pKd
B1	below the threshold

What follows are binders tested against LNX1_2, Q8TBB1 (assay: holdup assay). Conditions: plain residues with an end cap or a label only (N-terminal biotin on a linker: ado-ado).
Parameters: key: below the threshold = too weak to quantify, mostly under pKd 3.1 to 4

Sequence of LNX1_2, Q8TBB1 (Q8TBB1 371-470): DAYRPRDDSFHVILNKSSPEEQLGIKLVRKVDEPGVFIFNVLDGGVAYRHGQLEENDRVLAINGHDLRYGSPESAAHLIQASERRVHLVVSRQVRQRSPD

Binder	pKd
B1	below the threshold
